Experimental data reported in article doi:10.1101/2024.04.06.588386.

Tests used:
[1] = target: LV4-2A2^1-122 (C-terminally truncated 2A2 protein of Ljungan virus 4) (Ljungan virus 4 (strain 64-7855)); test: SEC-MALS
[2] = target: LV4-2A2^1-122 (C-terminally truncated 2A2 protein of Ljungan virus 4) (Ljungan virus 4 (strain 64-7855)); test: crystal structure
[3] = target: LV1-2A2 (2A2 protein of Ljungan virus 1, isolate 87-012) (Ljungan virus 1 (isolate 87-012)); test: crystal structure
[4] = target: HPeV3-2A (2A^H/NC protein of human parechovirus 3) (Human parechovirus 3 (HPeV3)); test: SEC-MALS
[5] = target: HPeV3-2A (2A^H/NC protein of human parechovirus 3) (Human parechovirus 3 (HPeV3)); test: crystal structure
[6] = target: HPeV3-2A (2A^H/NC protein of human parechovirus 3) (Human parechovirus 3 (HPeV3)); test: SEC-SAXS
[7] = target: SEBV1-2A2 (2A2 protein of Sebokele virus 1) (Sebokele virus 1 (SEBV1)); test: SEC-MALS
[8] = target: SEBV1-2A2 (2A2 protein of Sebokele virus 1) (Sebokele virus 1 (SEBV1)); test: crystal structure
[9] = target: SEBV1-2A2 (2A2 protein of Sebokele virus 1) (Sebokele virus 1 (SEBV1)); test: SEC-SAXS
[10] = target: LV4-2A2 (full-length 2A2 protein of Ljungan virus 4, strain 64-7855) (Ljungan virus 4 (strain 64-7855)); test: SEC-MALS
[11] = target: LV4-2A2 (full-length 2A2 protein of Ljungan virus 4, strain 64-7855) (Ljungan virus 4 (strain 64-7855)); test: SEC-SAXS

LV4-2A2^1-122 (C-terminally truncated 2A2 protein of Ljungan virus 4) (domain or fragment)
stoichiometry N [1]: 2
stoichiometry N [2]: 2

LV1-2A2 (2A2 protein of Ljungan virus 1, isolate 87-012) (natural protein)
stoichiometry N [3]: 2

HPeV3-2A (2A^H/NC protein of human parechovirus 3) (natural protein)
stoichiometry N [4]: 2
stoichiometry N [5]: 4
stoichiometry N [6]: 2

SEBV1-2A2 (2A2 protein of Sebokele virus 1) (natural protein)
stoichiometry N [7]: 2
stoichiometry N [8]: 2
stoichiometry N [9]: 2

LV4-2A2 (full-length 2A2 protein of Ljungan virus 4, strain 64-7855) (natural protein)
stoichiometry N [10]: 2
stoichiometry N [11]: 2
